Test results from patent publication US20180362596.

Target: human plasmin (UniProt P00747)
Sequence (P00747 97-810): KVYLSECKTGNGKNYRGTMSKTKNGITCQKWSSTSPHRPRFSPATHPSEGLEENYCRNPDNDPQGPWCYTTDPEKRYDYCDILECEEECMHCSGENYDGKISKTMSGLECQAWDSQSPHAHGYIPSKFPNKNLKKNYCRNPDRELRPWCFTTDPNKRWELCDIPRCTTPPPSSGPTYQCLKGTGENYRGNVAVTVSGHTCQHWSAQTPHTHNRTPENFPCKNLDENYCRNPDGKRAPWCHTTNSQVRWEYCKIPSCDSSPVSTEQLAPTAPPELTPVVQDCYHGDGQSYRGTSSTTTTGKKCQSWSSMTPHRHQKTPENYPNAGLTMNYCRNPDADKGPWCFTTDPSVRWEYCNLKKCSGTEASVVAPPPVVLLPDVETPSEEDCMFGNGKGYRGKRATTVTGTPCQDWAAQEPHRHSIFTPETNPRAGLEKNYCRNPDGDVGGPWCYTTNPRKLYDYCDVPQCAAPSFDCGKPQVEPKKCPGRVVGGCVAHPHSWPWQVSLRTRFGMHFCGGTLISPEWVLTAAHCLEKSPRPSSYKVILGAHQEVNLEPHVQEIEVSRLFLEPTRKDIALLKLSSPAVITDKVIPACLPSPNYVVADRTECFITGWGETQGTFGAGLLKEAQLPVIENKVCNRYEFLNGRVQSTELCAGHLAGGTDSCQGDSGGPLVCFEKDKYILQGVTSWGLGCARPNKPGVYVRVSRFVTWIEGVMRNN

## clot specific streptokinase (CSSK), FBD(4,5)-SK-FBD(4,5), expressed in E. coli
  lag in plasminogen activation activity with added plasmin: there was a progressive decrease in the lag in activity in the presence of increasing amounts of plasmin added to the reaction

## clot specific streptokinase (CSSK), FBD(4,5)-SK-FBD(4,5), expressed in Pichia pastoris (pPIC9K-alpha modified CSSK/GS115), glycosylated
  lag in plasminogen activation activity with added plasmin: there was a progressive decrease in the lag in activity in the presence of increasing amounts of plasmin added to the reaction
